Laboratory results taken from IntAct's records for PubMed 20927106.

B1: Coronatine-insensitive protein 1 (Arabidopsis thaliana (Mouse-ear cress)), O04197 (parent)
chain: MEDPDIKRCKLSCVATVDDVIEQVMTYITDPKDRDSASLVCRRWFKIDSETREHVTMALCYTATPDRLSRRFPNLRSLKLKGKPRAAMFNLIPENWGGYVTPWVTEISNNLRQLKSVHFRRMIVSDLDLDRLAKARADDLETLKLDKCSGFTTDGLLSIVTHCRKIKTLLMEESSFSEKDGKWLHELAQHNTSLEVLNFYMTEFAKISPKDLETIARNCRSLVSVKVGDFEILELVGFFKAAANLEEFCGGSLNEDIGMPEKYMNLVFPRKLCRLGLSYMGPNEMPILFPFAAQIRKLDLLYALLETEDHCTLIQKCPNLEVLETRNVIGDRGLEVLAQYCKQLKRLRIERGADEQGMEDEEGLVSQRGLIALAQGCQELEYMAVYVSDITNESLESIGTYLKNLCDFRLVLLDREERITDLPLDNGVRSLLIGCKKLRRFAFYLRQGGLTDLGLSYIGQYSPNVRWMLLGYVGESDEGLMEFSRGCPNLQKLEMRGCCFSERAIAAAVTKLPSLRYLWVQGYRASMTGQDLMQMARPYWNIELIPSRRVPEVNQQGEIREMEHPAHILAYYSLAGQRTDCPTTVRVLKEPI
partner: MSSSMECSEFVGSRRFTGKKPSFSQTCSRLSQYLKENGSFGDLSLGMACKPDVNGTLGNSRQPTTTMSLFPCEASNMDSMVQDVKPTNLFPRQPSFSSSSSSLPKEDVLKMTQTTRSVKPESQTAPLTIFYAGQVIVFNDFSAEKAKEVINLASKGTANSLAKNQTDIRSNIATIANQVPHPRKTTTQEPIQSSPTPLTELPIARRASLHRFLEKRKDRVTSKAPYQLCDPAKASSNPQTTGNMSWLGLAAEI

Variants of: B1
Details: with ti10a_arath TIFY10A

| Variant | effect of a mutation on the interaction |
| --- | --- |
| Y444A | disrupting interaction |
| Y386A | disrupting interaction |
| R409A | disrupting interaction |
| R496A | disrupting interaction |
| M88A | disrupting interaction |
| R348A | disrupting interaction |
| R326A | disrupting interaction |
| R85A | disrupting interaction |
| F89A | disrupting interaction |
| L301A | disrupting interaction |
| R121A | disrupting interaction |
| R351A | disrupting interaction |
| L469A | disrupting interaction |
| Y302A | disrupting interaction |
